Source: a protein production outcome set (Wang et al. 2014)

Assay: label from the status in PepcDB records
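Note: failed if final PepcDB status was selected cloned or expressed and not failed if soluble or beyond.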

For “MFKKHNFHFNWLPLILISTVSIMLIFNIRSILSEGIRPFLSVLTPFFWAFGIAYLINPLMMLIEKKFKLKRAFSLMISYILVIICVYILIAIIVPTIFDSLSELFSNLSEYASSAESWINNTLASMNVPLDLNHLNTSATEFISKTSTLLSNIVGSLLTQTIKITSSVVKFVFGFIISIYMLMDKETLIEGCKKIIIAVMPSEKSSELFISFMAEAHNIFSRFIIGKIIDSLIIGVLCYIGLLLMGTQYAVLISFIVGLTNMIPYFGPFIGMIPAFLLTLIVQPSMAIWVLLFIFILQQFDGWYLGPKILGDQVGVSPLFIIFAVTVGGGIFGVLGMFLSVPIIALIKIYTEKFIEYRLENKKQNFSE”, the protein production was “failed”.

For “MVSPQGVIVARAIISCGVASKKPFYRDQTMETDFSVHSHKGKGSLMRRKPALRLLCSAALAAALAIGAGASPGFAETKAKPEDKAVTFDPGKVNTFSGAFLAGRNADVDQDYPTAISLYKKALEYDPANSEIRQRLMIAELLSGNFEAGAKIADSMKDDTSVERVTTIVRGLDAIKDKEFTKAEKILKYTGPNDLDRMVNTLLTAWARAGSGKPKEALALVNNMKGPGWISIFQKYNAAAIALVSGNTEAARKSLNEAVTDREGGATASDTYMRAVMALARLEASAGNKQKALDAIAVGDTFAPNYAPLKALREAIEKGEKPEQQITNAVEGAASVMFSIAGALNREGAEEIVTLYLQTSRALDPKSPDTLILLGGLAEAMKQPERAITFYREVPKDSPMHRISELQLGLTLAQTGKVEESRKHLLSLLESDPKDIRSYLAYGSVLSDAKDYKAMAENYDKAVEVIGAVPQKSDWSVFFQRGIAYERLKQWDKAEPNFKRALELNPEQPQVLNYLGYSWVDKGINLDEGMKMISRAVELRPNDGYIVDSLGWAHYRLGDFDQSVTELERAIELKAGDPTINDHLGDAYWRVGRKIEAVYQWNRALIGDNDDVDKAKVKEKIANGLPPVEKDAENTAKKDVAPQPPAPPAPATPTPDKKS”, the protein production was “failed”.

With “MPRYKTVEQVLSLMKDRTRVRNIGIIAHVDHGKTTTSDTLLAASGIISPKVAGEALALDYLNVEQQRGITVKAANISLYHEAEGKGYVINLIDTPGHVDFSGRVTRSLRVLDGSIVVVDAVEGIMTQTETVLRQSLEERVRPILFINKVDRLVKELKLSPQEMLNRLLDIIRQVNNLIDMYGEPEFKEKWMINPQAGNVIFGSAKDKWGFSLPMAQKKGINMKNVIDAYTASDKSKLEELAAQAPINEALLDAAIKFVPNPIEAQKYRIPKIWKGDLDNELAKAMLNADPNGPIVFMITDMKVDPHAGLVATGRVFSGTLRSGEELWLVNAKTSQRILQVSLYMGPTRELAEEIPAGNIAAVLGLDRARSGETAISVGFSNVQGSFERLHYISEPVVTIAVEPKNPKDLTKMIDALRKLSIEDPNLVVKINEETGEYLLSGMGFLHLEVSLQLLRENYGIDVVTTPPIVVYRESIRAKSQVFEGKSPNKHNKFYLSVEPLNDKTIELISNGTIREDMDSKEMAKILRDEASWDYDEAKRIIAIDENVNVFVDLTSGVQHLREVMDTVLQGFRLAMKEGPLAHEPIRGVKVILHDAVIHEDPAHRGPAQIYPAVRNSIFAGFLTSRPTLLEPIQKLDIRVPADLIGNVTAVITRKRGKILDVSQIANMSRITAEIPVSESYDMASELRGSTGGRAFWGTEFSRWAPVPDSILLDVVTKIRERKGLPKELPKVEDFLS” the protein production was “failed”.

For “MSRRGLEREGGKPVSSDAKGLKRVDVRLKWDPSPWDRPPHHLDIIATTYAADAPHGRPVYVVQFDKRSPDGTINMSRHSRTGQGFGFVEEMTFELDRLSPSIARVIVGVAIHQDNGHKTFDDVSNTGVVVAEGYRELLTDGFERVAGATAATVAEFTRNASGAWEFREAVRGFDSDPVLFATEMGSAPRP”, the protein production was “not failed”.

For “MSVFTTKVQSIGPEAELFKEEKMVILFGKDAPDALADYCYNIEVQPVTEAITDKQTLVIDEQTYQITAVGEVVLTNLDTLGHITIKFDGATTPELPGTLYVEEKAIPEITVGTTIT”, the protein production was “failed”.

For “MQNMKNQVRGSGMDARSNPANVSDGLQNSSGHIGTNTRYRLTKLGEQMARLPIDPKIARILLAAKKHDCMAEILVIASALSIQDPRERPLEARDAAAKAHERFTDKQSDFLTYLNIWDSFQRERDKGLSNKQLVQWCRQYFLSHLRMREWRELHHQLAQTAIEMGLTTKEAAFRRPPEVKQLTSSENAGDQDLSAKLKQKQLDKKQHRTQIRATKEAGYEQIHRALLTGLIANVGMKSPDSNDYTGARGSRFHLFPASALFKAKPKWVMAAELVETTRLYARDVAVIQPEWIEQEAPHLVRYHYFEPHWEQKRGEVVASERVTFYGLTVLPRRPVSYGKVAPEEAREIFIRSALVAQEYDLKADFFVHNKKLIKEITELEHKSRKQDVLVDDEALFAFYHERLPDFYMADSVSEGLCPANPQQTTPSPVGKGWGEGKTVAAQTNFSATAANPLPNPLPQEREQSASVSTVSGSLKTMSCEARLNFCEAKTKTESSLHSQRLSENYTPPFSDGLRPANPQQTTPSPVGEGWGEGKTVAAQTNFSATAANPLPQEREQSASALTVSDDPKPKKQPASQKGRLKPLPLADIRTFEAWLKTAERDNPRLLFLSRDDLMQHAAAHITEEQFPKHWQTADGKFKLSYRFEPHHPLDGVTLTLPLTVLNRISPAALEWLVPGMIREKIQLQIKALPKQIRRICVPVPEFITQFLSQNPDRNAPILPQLAQAIAKTAGDIRILEQINQDEWAAFRLPEHCYFNLRIIDDGEQELAMGRDLIQIQQQLGKAATTTFRDNTQEFERDNVTAWDIGILPESIKFARGKQQLTGYLGLQKEKDGRIALRLFDTSAAAGHAHRLGVIELMKLQLKEQVKDLNKGIQGFTQAAMLLKHINADTLRDDLTQAVCDRAFIGEDKLPRNEKAFKEQIKRARSRLPAVKEALSRYLQETAAAYAELNGKLGKHPLTHLLRLRLQTLLAPGFATRTPWAQWPRLPIYLKAMTLRLEKYSSNPARDAAREADIQELEQMWQEKTDGLAKQGQPVSDGLAAFKWMIEELRVSLFAQELKTPYPVSVKRLLKMWEILL”, the protein production was “failed”.

In the case of “MQQLSFLPGEMTPGERSLILRALQTLDRHXHEPGVAFTSTRAAREWLILNMAGLEREEFRVLYLNNQNQLIAGETXFTGTINRTEVHPREVIKRALYHNAAAVVLAHNHPSGEVTPSKADRLITERLVQALGLVDIRVPDHLIVGGNQVFSFAEHGLL”, the protein production is reported as “failed”.

In the case of “MPANPRQDLDRYRAKRDFARTPEPQGRSEAPRPEAESLSFVVQKHAASRLHWDFRLEWNGVLLSWAVTRGPSPDPSARRLAVRTEDHPLDYAEFEGTIPKGEYGGGTVMLWDRGTWEPQGDFAEGLRTGQLKIRLAGERMRGRWTLVRMKPRPREKAENWLLIKEHDTHESEQTEELVERHMTSVATGRTMEQIAAGKAPPRRTRQAALPAFRPLQLARLVSAAPEGEDWIHETKFDGYRCLAALAGGRARLYTRSGLDWTAKFGALVEDVEALEAQEALIDGEVIAPGREGGSFSELQARLKSGGQLLFMTFDLLLLDGEDLTGQPLLARKERLKTLIGKGRGAVRFSGHIRGHGPEVHERICAAGLEGIVSKRASAPYAGSRNGDWLKVKCAHRQEFVICGWNASDKPGRPFASLVMGSYEKSRLVYRGSVGSGFGAPLFRELKPLLAERAQSACPFDRTPAEAKGAHWLKPELVAEVSFTELTAEGHIRHGVFAGLRSDKDAREVRLEEPAPETPAPRKSGVRKKGTKTARPDAPSPDEPAPEPARKPRTARGEKKETTMARPDDLRVAGIRISHPDRRIYDRPAVTKREVAEHAEALAPRMLRFLKDRPVSLLRCPEGAAAECFFQKHRTRGMPVAMKTVPVETKSGPEDFITLPDVAALVGATQMGTLEFHIWGSRNRSLQRPDRLVFDLDPDEGLDFAHVRTAAAELRGLLTDLGLPSVPMLSGGKGVHVIVPLKPKAEWESVKLFSRALATHLAQEAPDRYTATMAKAGRKGRIFIDWLRNDRGSTAIAPYSLRARPGAPVATPVDWDELASARSGGDWTIRSIRDRLDRPCPLAEASARPATLGRTVIGRLERLVAGGKP”, the protein production is reported as “failed”.

With “MKQLPKTRTALLLAFLVIMWGVNWPLSKAALAYSPPLLFAGIRTLIGGLLLVIVALPRIHKLRLKETWPIYLVSALLNITLFYGLQTIGLNYLPAGLFSAIVFFQPVLMGVFSWLWLGESMFVMKVIGLILGFAGVAVISAAGFGGHISVIGVLLALGSAVSWALGTVYMKKTGSRVDSIWMVALQLTIGSVFLLISGFWTESFSAIQWTAPFITSLLFISVFVIALGWLVFFTLVGSGEASKVASYTFLIPLISIVASSIFLHEPLTLSLLAGLLLIVTSICLVNTKSKAQKAAAIGINEKAAQ” the protein production was “failed”.

For “LFYDSEQDKEQSNPYMVLDIDKLFHVRPVTQTDVYRADAKEIPRIFQILYANEGESKKEQEFPVEPVGEKSNYICHKGHEFIPTLYHFPTNCEACMKPLWHMFKPPPALECRRCHIKCHKDHMDKKEEIIAPCKVYYDISTAKNLLLLANSTEEQQKWVSRLV”, the protein production was “failed”.

In the case of “MSQPRNRWIVQLILALAVLAFVGVSVVPIIGALNDNTSPSNQNSASNQGDSLASNQQSKLADEVRGYELVLQREPENQTALKGLLQARLQLLALKQGNVQSVIEPLEKLAKLNPNQSEYGVLLAQAKQQIGDKEGAATAYRSILDTKPGDLKALQGMVVLLLDQQRPEAAVGLLQDTLTNAAQANTIQPGSVDVVAVQVLLGNVHAAQKRYPQAISAFDQAIQKDTKDFRPVLAKAMLLKQQGKATEAKPLFDSALALAPAQYKDEINKAATVSPAPAPPAPPAPTPESTPKQ”, the protein production is reported as “failed”.

For “MHSIQSPRLRQHFPRRSPKKLALKKSGGLGHRAKASHCYRIVLYSHDTMGLGHKRRNLLIAQTLQKSRLPVEILVITGIEEGNEALTAAGINYVNLPSLRKNGDGSYSGRDLDLPLEKLIAWRSQLILKTIQQFQPDVLMVDNVPRGVERELDPSLKYLRQRPESLCVLGLRDILDQPGTVQRDWGQADNERAIRRYYDAVWVYGDPQVYDLRHEYGFAPDVTAKMRPLGYFHQGDRLQHLTKPWQETLSNWKLPSRFILGAVGGGQDGETLAIAFAQIPFTADLPGVLLTGPFMPESVRQKLKVSAQNNPDLTILPYFSEPTMLMWAAERVITMGGYNTTCEILSFQKPALIIPRIKPRQEQWLRATRLKQLGLVDVLHPDQVNAQNLTAWLHSAPTNQYNKPVLNLRATQQLPLVLGQLLSTRNCFMSQAC”, the protein production was “failed”.

In the case of “MAGATDRDGWKVERGDDSWTVPGYIDLKKLGKGGAGRVMIARHAGTGRNVAIKYLNEELCSKVEFRTALRAEARLLGGLTSPHVTRLYEYVEAEQGAAIVMELVYGAALRTLLKKEGSTDIEAALVVLKGSLLGLAAAHGVGVVHRDYKPENVLVNWDGQTKLVDFGISARTGDRHNLRGTCAYMPPEQWKLEAATPAGDVYAATATLYECVTGVRPFEGPEPWDFQRQHVDEPVPMDRVPEEVRALVRHGMAKDPALRPPSALDFLRELEWAAENAYGPDWEERGQSRLAAVAAALVPLAISRLDARLVGSSAELARTVLTARRRSRLRRRGDVLTGAAAVAVVGLLSLMPSGWAAGGAEGHAGAHAQAVTRLDARKDTGSATEARGTEHGDTAESDPDSDRAGTSGAQGGGGHGDGGAGLAPADGGTRSDSGSGGGAGDSGTDSPDDGNNTVERNGGTENGGTENGGTENGGTENGGTENGGTENGGTENGGTENGGTENGGTENGGTENGGTENGGTENGGTENGGTENGGTENGGTENGGTENGGTENGGTENGGTENGGTENGGTENGGTENGGTENGGTENGGTDNGGTDNGGTDNGGTDARHGHSNAGTSDGDPASTGGTDSGNSAGGTGTGTGSGSTSAVTPRQGDPAAVEGEPG”, the protein production is reported as “failed”.

In the case of “MKSLLMRTGSMPVLQNRLISGGSSRKMTPISRTNSVESLSSYGERFAGGKISIEVKANVGMRRVLSESDVIRSERMLKRVGSKPSPARIPEDDEAGEEEIRFADGWGSMISGGLPVEEKCFTGGGVGGGSGYSGGYGNGGGGGYEDKSKIGDYYREMLRSNPNNSLLLMNYGKFLYEVEKDAEGAEEYYGRAILENPGDGEALSMYGRLIWETKRDEKRAQGYFDQAVNASPNDCMVLGSYARFMWEAEDDDDDDEEEEEEEWMAASPLMVSAV”, the protein production is reported as “failed”.
